From PMC4132792, “Engagement of Nucleotide-binding Oligomerization Domain-containing Protein 1 (NOD1) by Receptor-interacting Protein 2 (RIP2) Is Insufficient for Signal Transduction*” (The Journal of Biological Chemistry, 2014)

Biological target: the molecule itself
Assay: SEC; Superdex 75 HiLoad 16/60, 25 mM sodium phosphate, 100 mM NaCl, no reducing agent; monomer and dimer

Row | Protein | stoichiometry N
1 | His6-tagged recombinant NOD1 CARD (residues 15-110), wild type (domain or fragment, human, UniProt Q9Y239-1 15-110, looked up, NOD1 CARD domain, human, residues 15-110; the dimer is stabilised by an interprotomer disulfide bond through Cys-39 (from the cited crystal structures); also called wild-type NOD1 CARD; wild-type NOD1) ESHPHIQLLKSNRELLVTHIRNTQCLVDNLLKNDYFSAEDAEIVCACPTQPDKVRKILDLVQSKGEEVSEFFLYLLQQLADAYVDLRPWLLEIGFS | 2
2 | His6-tagged recombinant NOD1 CARD (residues 15-110) E56K (domain or fragment, human, UniProt Q9Y239-1 15-110, looked up, NOD1 CARD domain, human, residues 15-110, E56K) ESHPHIQLLKSNRELLVTHIRNTQCLVDNLLKNDYFSAEDAKIVCACPTQPDKVRKILDLVQSKGEEVSEFFLYLLQQLADAYVDLRPWLLEIGFS | 2
3 | His6-tagged recombinant NOD1 CARD (residues 15-110) E53K (domain or fragment, human, UniProt Q9Y239-1 15-110, looked up, NOD1 CARD domain, human, residues 15-110, E53K) ESHPHIQLLKSNRELLVTHIRNTQCLVDNLLKNDYFSAKDAEIVCACPTQPDKVRKILDLVQSKGEEVSEFFLYLLQQLADAYVDLRPWLLEIGFS | 2
4 | His6-tagged recombinant NOD1 CARD (residues 15-110) D48K (domain or fragment, human, UniProt Q9Y239-1 15-110, looked up, NOD1 CARD domain, human, residues 15-110, D48K) ESHPHIQLLKSNRELLVTHIRNTQCLVDNLLKNKYFSAEDAEIVCACPTQPDKVRKILDLVQSKGEEVSEFFLYLLQQLADAYVDLRPWLLEIGFS | 2
5 | His6-tagged recombinant NOD1 CARD (residues 15-110) A55V (domain or fragment, human, UniProt Q9Y239-1 15-110, looked up, NOD1 CARD domain, human, residues 15-110, A55V (a polymorphism)) ESHPHIQLLKSNRELLVTHIRNTQCLVDNLLKNDYFSAEDVEIVCACPTQPDKVRKILDLVQSKGEEVSEFFLYLLQQLADAYVDLRPWLLEIGFS | 2
6 | His6-tagged recombinant NOD1 CARD (residues 15-110) N43S (domain or fragment, human, UniProt Q9Y239-1 15-110, looked up, NOD1 CARD domain, human, residues 15-110, N43S (a rare polymorphism)) ESHPHIQLLKSNRELLVTHIRNTQCLVDSLLKNDYFSAEDAEIVCACPTQPDKVRKILDLVQSKGEEVSEFFLYLLQQLADAYVDLRPWLLEIGFS | 2
